B1: wrmScarlet::TDPT-1 [C. elegans] / TOP-2::3xFLAG [C. elegans] (parent)
chain 1: MSNSDDEIQEIEAKRQKMSQEDSEVEIEILDEPEQGKLKNSSMSDEQKLHEFAIITATDEAFAQSILQDVDWDLKKALDVFYGSEAFAEARSAAVMGASSSMASSGAAVMTAEDLKGFEVSVMSWNIDGLDGRSLLTRMKAVAHIVKNVNPDILFLQEVVDRDLAPIDKLQSLYKIYYSNKGCQYYTAILVSKMFDVEKHDVIHFQNSGMYRTLQILEGSIGGLKVFLLNTHLESTREHRPQRCAQFGFCMDKVREIIAQNPGALVFFGGDLNLRDEEVSRVPDGVKDAWEAAGSDNKTKFTWDTFKNDNKQGFHGAKMRFDRLYWSGPLDKVKFTLEGRQRIRSCLCFPSDHWAINATFFA
chain 2: MSDSDSEFSIEDSPKKKTAPKKEKASPKKKKDDANESMVMTEEDRNVFTSIDKKGGGSKQMAIEDIYQKKSQLEHILLRPDTYIGSVEHTEKTPMWVYNMEESKLEQRDISYVPGLYKIYDEILVNAADNKQRDPKMNTIKITINKEKNEISVYNNGKGIPVTQHKVEKVYVPELIFGTLLTSSNYNDDEKKVTGGRNGYGAKLCNIFSTKFTLETSSRDYKSAFKQTWIKNMTRDEEPKIVKSTDEDFTKITFSPDLAKFKMKELDDDICHLMARRAYDVAGSSKGVAVFLNGKRIPIKGFEDYVQMYTSQFNNEGEPLKIAYEQVGDRWQVALALSEKGFQQVSFVNSIATTKGGRHVDYVADQMVAKFIDSIKRKLTKTSMNIKPFQIKNHMWVFVNCLIENPTFDSQTKETMTLQQKQFGSTCVLSEKFSKAASSVGITDAVMSWVRFKQMDDLNKKCSKTKTSKLKGIPKLEDANDAGTKNSQQCTLILTEGDSAKTLAVSGLSVVGRDKYGVFPLRGKLLNVREGNMKQIADNAEVNAMIKILGLQYKKKYETEDDFKTLRYGKLMVMADQDQDGSHIKGLVINFIHHFWPSLIQRNFVEEFITPIVKATKGKEEVSFYSLPEYSEWRMNTDNWKSYKIKYYKGLGTSTSKEAKEYFLDMVRHRIRFKYNGADDDNAVDMAFSKKKIEERKDWLSKWMREKKDRKQQGLAEEYLYNKDTRFVTFKDFVNRELVLFSNLDNERSIPCLVDGFKPGQRKVLFACFKRADKREVKVAQLAGAVAEISAYHHGEQSLMGTIVNLAQDYVGSNNINLLLPIGQFGTRLQGGKDSASARYIFTQLSPVTRTLFPAHDDNVLRFLYEENQRIEPEWYCPIIPMVLVNGAQGIGTGWSTNIPNYNPRELVKNIKRLIAGEPQKALAPWYKNFRGKIIQIDPSRFACYGEVAVLDDNTIEITELPIKQWTQDYKEKVLEGLMESSDKKSPVIVDYKEYHTDTTVKFVVKLSPGKLRELERGQDLHQVFKLQAVINTTCMVLFDAAGCLRTYTSPEAITQEFYDSRQEKYVQRKEYLLGVLQAQSKRLTNQARFILAKINNEIVLENKKKAAIVDVLIKMKFDADPVKKWKEEQKLKELRESGEIELDEDDLAAVAVEEDEAISSAAKAVETKLSDYDYLVGMALIKLSEEEKNKLIKESEEKMAEVRVIEKKTWQDLWHEDLDNFVSELDKQEAREKADQDASIKNAAKKLAADAKTGRGPKKNVCTEVLPSKDGQRIEPMLDAATKAKYEKMSQPKKERVKKEPKEPKEPKKVKKEGQDIKKFMSPAAPKTAKKEKSDGFNSDMSEESDVEFDEGIDFDSDDDGVEREDVVSKPKPRTGKGAAKAEVIDLSDDDEVPAKKPAPAKKAAPKKKKSEFSDLSGGDSDEEAEKKPSTSKKPSPKKAAPKTAEPKSKAVTDFFGASKKNGKKAAGSDDEDDESFVVAPREKSGRARKAPPTYDVDSGSDSDQPKKKRGRVVDSDSD

Variants of: B1
Experiment: co-immunoprecipitation (anti-FLAG magnetic agarose beads) with anti-RFP immunoblot, band quantification
Conditions: with TOP-2::3xFLAG [C. elegans]; parent: 1; read off a plot

Row | ratio to parent | Variant
1 | 0.42 | chain 1 G117R

Same assay, conditions: with wrmScarlet::TDPT-1 [C. elegans]; parent: 1; read off a plot

Row | ratio to parent | Variant
2 | 1 | chain 2 R828C

From paper PMC11261448
